# Data from patent US20260226173A1 (Memorial Sloan Kettering, published 2026).
# Numbering of substitutions follows the chain as printed.
# B1: ESK2 clone 17 (Clone 17 anti-WTMC antibody moiety), phage clone (scFv, V domains shown)
# VH: EVQLVQSGAEVKKPGESLKISCKGSGYSFTSYWIGWVRQMPGKGLEWMGIIYPGDSDTRYSPSFQGQVTISADKSISTAYLQWSSLKASDTAVYYCARGGYIYYDAWGQGTLVTVSS
# VL: SYVLTQPPSVSEAPRQRVTISCSGSRSNVGNNAVSWYQHLPGKAPKLLIYYDDLMPSGVSDRFSGSKSGTSASLAISGLQSEDEADYYCAAWDDSLNGLVFGGGTKLTVLG
# notes: Human scFv on phage (E-ALPHA library); also called ESK2-17
# B2: ESK2 clone 26 (Clone 26 anti-WTMC antibody moiety), phage clone (scFv, V domains shown)
# VH: QVQLVQSGGGLVQPGRSLRLSCAASGFTFDDYAMHWVRQAPGKGLEWVSGISWNSGSIGYADSVKGRFTISRDNAKNSLYLQMNSLRPEDTAVYYCARGYMGHNWYDWGQGTLVTVSS
# VL: LPVLTQPPSVSVAPGKTARITCGGNDIGSKAVHWYQQKPGQAPVLVIYYNRDRPSGIPERFSGSNSGNTATLTISRVEAGDEADYYCQVWDSFSDHYVFGTGTKVTVLG
# notes: Human scFv on phage (E-ALPHA library); also called ESK2-26
# B3: ESK2 clone 32 (Clone 32 anti-WTMC antibody moiety), phage clone (scFv, V domains shown)
# VH: QVQLVQSGAEVKKPGSSVKVSCKASGDTFSSYAVSWVRQAPGQGLEWMGAINLIFGTVKYAQKFQGRITITADESTSTAYMELSSLRSEDTAVYYCARGHWSQVWWTSHSYDLWGQGTLVTVSS
# VL: B2 VL with L1Q, P2A, D26N, A31S, I47V, Y49D, N50D, R51S, F93S
# notes: Human scFv on phage (E-ALPHA library); also called ESK2-32
# B4: ESK2 clone 12 (Clone 12 anti-WTMC antibody moiety), phage clone (scFv, V domains shown)
# VH: EVQLVESGGGLVQPGGSLRLSCVVSGITVSNNYMTWVRQAPGKGLEWVSVIYSDGSTYYADSVRGRFTISRDISKNTVFLQMNSLRAEDTAMYYCASDKVAVAWTDGLDSWGQGTMVTVSS
# VL: SSELTQDPTVSVALGQTVRITCQGDSLRSYYGGWYQQKPGQAPILVFHGQTNRPSGIPDRFSGSSSGNTVSLTITGAQAEDEADYYCSSRDSSGNHWVFGGGTKLTVLG
# notes: Human scFv on phage (E-ALPHA library); also called ESK2-12
# B5: ESK2 clone 15 (Clone 15 anti-WTMC antibody moiety), phage clone (scFv, V domains shown)
# VH: QVQLVQSGAEVKKPGASVKVSCKASGYTFTDFYIHWVRQAPGQGPEWMGWVNPKSGGTNYAQKFQGRVTMTRDTSISTAYMALSRLRSDDTAVYYCARSWQGMSWESVEDVWGQGTLVTVSS
# VL: QSVLTQPPSVSGAPGQRVTISCTGSSSNIGAGYDVHWYQQLPGTAPKLLIYGNSNRPSGVPDRFSGSKSGTSASLAITGLQAEDEADYYCQSYDSSLSGAVFGTGTKVTVLG
# notes: Human scFv on phage (E-ALPHA library); also called ESK2-15
# B6: ESK2 clone 30 (Clone 30 anti-WTMC antibody moiety), phage clone (scFv, V domains shown)
# VH: QVQLQESGGGLVQPGGSLRLSCAASGFTFSSYWMHWVRQAPGKGLVWVSRINSDGSSTSYADSVKGRFTISRDNAKNTLYLQMNSLRAEDTAVYYCARSGYYMSDIWGQGTLVTVSS
# VL: NFMLTQPPSLSVAPGKTATITCGGNNIGSKSVHWYQQKPGQAPVLVISYDSDRPSGIPERFSGSKSGNTATLTISRVEAGDEADYYCQVWDSSSDQYVFGSGTKVTVLG
# notes: Human scFv on phage (E-ALPHA library); also called ESK2-30
# B7: ESK2 clone 10 (Clone 10 anti-WTMC antibody moiety), phage clone (scFv, V domains shown)
# VH: EVQLVESGGGVVQPGGSLRLSCAASGFTFDDYAMHWVRQAPGKGLEWVSLISGDGGSTYYADSVKGRFTISRDNSKNSLYLQMNSLRTEDTALYYCAKDMVAAAGWNPYYYYYGMDVWGQGTTVTVSS
# VL: NFMLTQPHSVSESPGKTVTISCTRSSGGIATNYVQWYQQRPGNAPTAVIYVDNERPSGVPERFSGSIDTSSNSASLTISGLETEDEADYYCQSYDSNNHVVFGGGTKVTVLG
# notes: Human scFv on phage (E-ALPHA library); also called ESK2-10
# B8: ESK2 clone 1 (Clone 1 anti-WTMC antibody moiety), phage clone (scFv, V domains shown)
# VH: EVQLVQSGAEVKKPGASVKVSCKASGYNFTSYGISWVRQAPGQGLEWMGWISAYNGNTNYAQKLQGRVTMTTDTSTSTAYMELRSLRSDDTAVYYCARDWDYDFLTGWDGMDVWGQGTTVTVSS
# VL: QSVVTQPPSVSAAPGQKVTISCSGSSSNIGNNYVSWYQQLPGTAPKLLIYYNNKRPSGIPDRFSGSKSGTSATLGITGLQTGDEADYYCGTWDSSLSAGQVFGGGTKLTVLG
# notes: Human scFv on phage (E-ALPHA library); also called ESK2-1
# B9: ESK2 clone 36 (Clone 36 anti-WTMC antibody moiety), phage clone (scFv, V domains shown)
# VH: EVQLVQSGAEVKKPGESLRISCKDSGYSFTSYWISWVRQMPGKGLEWMGRIDPSDSYTNYSPSFQGHVTISADKSISTAYLQWSSLKASDTAMYYCARMEIYSPDYWGQGTLVTVSS
# VL: DIQLTQSPSSLSASVGDRVTISCRASQSINKYLNWYQQKPGEAPKLLIYGALRLQSGVPSRFSGSGSGTDYALTITSLQPEDFATYYCQQSYSTPLTFGGGTKVDIKR
# notes: Human scFv on phage (E-ALPHA library); also called ESK2-36
# B10: ESK2 clone #18 BiTE (bispecific antibody, V domains shown)
# VH: not shown
# VL: QSVLTQPPSVSGAPGQRVSISCTGSSSNIGAGYVVHWYQHLPGTVPKLLIYDNSNRPSGVPDRFSGSNSGSSASLAVTGLQAEDEADYYCQSYDSSLSGWVFGGGTKLTVLG
# notes: made in CHO cells; also called ESK2-#18 BiTE; ESK2-BiTE clone #18
# B11: ESK2 clone #34 BiTE (bispecific antibody, V domains shown)
# VH: QVQLVQSGTEVRKPGASLKVSCTTSGYIFTGYYIHWVRQVPGQGLEWMGWINPNSGVTEFAQGFQGRITMTRDTSTSTVYMELSRLTSDDTAVYYCAREGVWGYYDSWGQGTLVTVSS
# VL: SSELTQDPAVSVALGQTVRITCQGDSLRSYYASWYQQKPGQAPVLVIYDKNNRPSGIPDRFSGSSSGNTASLTITGAQAEDEADYYCNSRDSSGNHHVVFGGGTKLTVLG
# notes: made in CHO cells; also called ESK2-#34 BiTE
# B12: ESK2 clone 14 (Clone 14 anti-WTMC antibody moiety), phage clone (scFv, V domains shown)
# VH: EVQLVQSGAEVKKPGASVKISCKTSGYTFTDYYLHWVRQAPVQGLEWMGYVDPYDGYTHYAQNFQGRVTMTTDTSTSTAYMELSSLRSEDTAVYYCARFSGTRQDSHWGQGTLVTVSS
# VL: QSALTQPPSASGSPGQSVTISCTGTSSDVGGYNYVSWYQQHPGKAPKLMIYEVSKRPSGVPDRFSGSKSGNTASLTVSGLQAEDEADYYCSSYAGSNNLAVVFGGGTKLTVLG
# notes: Human scFv on phage (E-ALPHA library); also called ESK2-14
# B13: ESK2 clone 11 (Clone 11 anti-WTMC antibody moiety), phage clone (scFv, V domains shown)
# VH: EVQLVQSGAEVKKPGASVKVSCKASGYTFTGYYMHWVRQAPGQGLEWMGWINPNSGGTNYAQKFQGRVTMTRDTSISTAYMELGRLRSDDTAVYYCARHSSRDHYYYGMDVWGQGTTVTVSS
# VL: QSVVTQPPSVSAAPGQRVTISCSGGSSNIGNNYVSWYQHLPGTAPKLLIYENNLKRPSGIPDRFSGSKSGTSATLGITGLQTGDEADYYCGTWDSSLNAGVFGGGTKLTVLG
# notes: Human scFv on phage (E-ALPHA library); also called ESK2-11
# Target: T1, WT1 RMF (…)/HLA-A2 complex on cells (human)
# T1 construct: On T2 cells pulsed with the peptide, on cells expressing the RMF minigene, or naturally presented on WT1+/HLA-A2+ tumour cells; also called RMF/HLA-A2; WT1 RMF/A2 complex
# Test: flow cytometry, phage clones on RMF-pulsed T2 cells
row,Binder,binding result
1,B1,binds
2,B2,binds
3,B3,binds
4,B4,binds
5,B5,binds
6,B6,binds
7,B7,binds
8,B8,binds
9,B9,binds

# Target: T2, biotinylated WT1 RMF pMHC complex (human)
# T2 construct: Soluble biotinylated complex loaded on the Biacore CAP chip; also called HLA-A2-WT1 RMF complex
# Test: SPR (Biacore), biotinylated pMHC on CAP chip, BiTE as analyte 150 to 4.6875 nM, 1:1 binding model; clone #18 BiTE
row,Binder,Kd
1,B10,3 nM

# Target: T2, biotinylated WT1 RMF pMHC complex
# Test: SPR (Biacore), biotinylated pMHC on CAP chip, BiTE as analyte 150 to 4.6875 nM, 1:1 binding model; clone #34 BiTE
row,Binder,Kd
1,B11,1.5 nM

# Target: T3, HLA-A2 on T2 cells alone (not pulsed with peptide) (human)
# T3 construct: TAP-deficient HLA-A2+ T2 cells with no peptide added; Also used as the HLA-A2 that pulsed peptides stabilise; also called T2 alone; T2 cells left unpulsed
# Test: flow cytometry, phage clones on T2 cells
row,Binder,binding result
1,B12,no binding
2,B1,no binding
3,B2,no binding
4,B3,no binding
5,B13,no binding
6,B4,no binding
7,B5,no binding
8,B6,no binding
9,B7,no binding
10,B8,no binding
11,B9,no binding

# Target: T4, TSTP1-10-mer (…)/HLA-A2 complex on T2 cells (human)
# T4 construct: Potential off-target peptide pulsed onto T2 cells; also called Tyrosyl protein sulfotransferase 1 peptide
# Test: flow cytometry, T2 cells alone or pulsed with peptide, stained with BiTE at 1 µg/ml, MFI
row,Binder,binding result
1,B11,no binding (tested: 1 µg/ml)
